Results on six variants are retold here after publication PMC13001094, “Cargo Recognition of Nesprin‑2 by the Dynein Adapter Bicaudal D2 for a Nuclear Positioning Pathway That Is Important for Brain Development” (Biochemistry, 2026).

To fix the notation:
B1: His6-tagged human BicD2-CTD (aa 715–804) [human] / GST-tagged mouse Nesprin-2 (aa 6123–6421) [mouse] (parent complex)
chain 1: YENEKAMVTETMMKLRNELKALKEDAATFSSLRAMFATRCDEYITQLDEMQRQLAAAEDEKKTLNSLLRMAIQQKLALTQRLELLELDHE
chain 2: RLWQKFLDDYSRFEDWLKSAERTAACPNSSEVLYTNAKEELKRFEAFQRQIHERLTQLELINKQYRRLARENRTDTASKLKQMVHEGNQRWDNLQKRVTAILRRLRYFTNQREEFEGTRESILVWLTEMDLQLTNVEHFSESDAEDKMRQLNGFQQEITLNTNKIDQLIVFGEQLIQKSEPLDAVLIEDELEELHRYCQEVFGRVSRFHRRLTSHTPGLDDEKEASENETDIEDPREIQADSWRKRRESEEPTSPQSLCHLVPPALGHERSGCETPVSVDSIPLEWDHTGDVGGSSSHE

In one assay the parent is B1. Nature of the assay: GST-pulldown, SDS-PAGE band intensity; n = 3; parent: 1; read off a plot.
Take chain 1 R69A: the ratio to parent was roughly 0.47.
As to chain 1 E83C, the ratio to parent was roughly 0.47.

In a further assay the parent is B1. The assay is described as above. The source holds these as a separate data set.
With chain 2 Y197A, the ratio to parent is roughly 0.32.
In the case of chain 2 H138A, the ratio to parent was roughly 0.29.
Regarding chain 2 V124A, chain 2 L131A, chain 2 F139A, the ratio to parent is roughly 0.04.
On to chain 2 E128A, for which the ratio to parent is roughly 0.81.
